The values that follow come from patent US8835379B2, “Derivatives of CGRP” (Novo Nordisk A/S, priority 2009, dated 2014).

*1 amine or outer side, *2 acyl side, *3 side chain or, on linkers, in order; H or OH if unused. Bridges are numbered along the chain shown (N, C = ends). Where no end group is shown, it is not given here. Side-chain parts run from the residue outwards. The star is where a group is joined. C18 diacid = O=C(O)CCCCCCCCCCCCCCCCC(=O)*; γGlu = O=C(O)[C@H](CCC(=O)[*:2])N[*:1]; AEEA = NCCOCCOCC(=O)O

B1: human alpha-CGRP acylated at position 25 (peptide)
peptide: ACDTATCVTHRLAGLLSRSGGVVKKNFVPTNVGSKAF
modifications: position 25 (printed X) = N-ε-{2-(2-{2-[2-(2-{2-[4-carboxy-4-(17-carboxyheptadecanoylamino)butyrylamino]ethoxy}ethoxy)-acetylamino]ethoxy}ethoxy)acetyl})-L-lysine; Cys2 and Cys7 are cyclised with a disulfide bond

One assay concerns the target CGRP receptor: calcitonin receptor-like receptor (CRLR) with receptor activity modifying protein-1 (RAMP1), stably transfected in Chinese hamster ovary (CHO) cells together with CRE luciferase. Kind of assay: cell-based or functional assay.
Conditions: not given
For “rat CGRP-beta (from UniProt P10093 89-125) (peptide)”, the EC50, pM (in vitro potency; CGRP-induced cAMP accumulation in CGRP receptor expressing cells, CRE luciferase) is 9 pM.

As for ACDTATCVTHK([AEEA-AEEA-γGlu-C18 diacid])LAGLLSRSGGVVKNNFVPTNVGSKAF (disulfide 2-7; ends not checked) [human alpha-CGRP acylated at position 11], the pEC50-ratio relative to human alpha-CGRP turned out to be 0.28. Take SCNTATCVTHRLAGLLSRSGGVVKDNFVPTNVGSEAF (peptide, UniProt P01256 83-119, looked up, disulfide 2-7; ends not checked) [rat CGRP-alpha]: the EC50, pM (in vitro potency; CGRP-induced cAMP accumulation in CGRP receptor expressing cells, CRE luciferase) turned out to be 5 pM. Turning to B1, the pEC50-ratio relative to human alpha-CGRP turned out to be 0.23. With ACK([AEEA-AEEA-γGlu-C18 diacid])TATCVTHRLAGLLSRSGGVVKNNFVPTNVGSKAF (disulfide 2-7; ends not checked) [human alpha-CGRP acylated at position 3], the pEC50-ratio relative to human alpha-CGRP amounted to 0.14.

Take ACDTATCVTHRLAGLLSRSGGVVKNNFK([AEEA-AEEA-γGlu-C18 diacid])PTNVGSKAF (disulfide 2-7; ends not checked) [human alpha-CGRP acylated at position 28]: the pEC50-ratio relative to human alpha-CGRP is 0.62.

For the molecule ACDTATCVTHRLAGLLSRSGGVVKNK([AEEA-AEEA-γGlu-C18 diacid])FVPTNVGSKAF (disulfide 2-7; ends not checked) [human alpha-CGRP acylated at position 26], the pEC50-ratio relative to human alpha-CGRP stood at 0.38.

Turning to ACDTATCVTHRLAGLLSRSGGVVKNNFVK([AEEA-AEEA-γGlu-C18 diacid])TNVGSKAF (disulfide 2-7; ends not checked) [human alpha-CGRP acylated at position 29], the pEC50-ratio relative to human alpha-CGRP is 0.41. The same measure, in the same setting: as for ACDK([AEEA-AEEA-γGlu-C18 diacid])ATCVTHRLAGLLSRSGGVVKNNFVPTNVGSKAF (disulfide 2-7; ends not checked) [human alpha-CGRP acylated at position 4], the figure is 0.15; as for ACDTATCVTHRLAGLLSRSGGVVKNNFVPTK([AEEA-AEEA-γGlu-C18 diacid])VGSKAF (disulfide 2-7; ends not checked) [human alpha-CGRP acylated at position 31], 0.44.

The target of the next assay is CGRP receptor (calcitonin receptor-like receptor (CRLR), receptor activity modifying protein-1 (RAMP1)) (Homo sapiens, UniProt O60894+Q16602). The experiment in a line: CGRP-induced cAMP accumulation in CGRP receptor expressing cells (CHO, CRE luciferase reporter). The format is cell-based. The conditions noted are these: crude SPOT-synthesised peptides, photo-cleaved, in DMSO; CGRP-1-luc cell line. How it is done: Chinese hamster ovary (CHO) cells were stably transfected with calcitonin receptor-like receptor (CRLR), receptor activity modifying protein-1 (RAMP1) and CRE luciferase (cAMP responsive element for control of luciferase gene expression). Luciferase is a reporter-gene reporting accumulation of intracellular cAMP).
Chain of CGRP receptor (calcitonin receptor-like receptor (CRLR), receptor activity modifying protein-1 (RAMP1)) (Q16602 23-461, species assumed): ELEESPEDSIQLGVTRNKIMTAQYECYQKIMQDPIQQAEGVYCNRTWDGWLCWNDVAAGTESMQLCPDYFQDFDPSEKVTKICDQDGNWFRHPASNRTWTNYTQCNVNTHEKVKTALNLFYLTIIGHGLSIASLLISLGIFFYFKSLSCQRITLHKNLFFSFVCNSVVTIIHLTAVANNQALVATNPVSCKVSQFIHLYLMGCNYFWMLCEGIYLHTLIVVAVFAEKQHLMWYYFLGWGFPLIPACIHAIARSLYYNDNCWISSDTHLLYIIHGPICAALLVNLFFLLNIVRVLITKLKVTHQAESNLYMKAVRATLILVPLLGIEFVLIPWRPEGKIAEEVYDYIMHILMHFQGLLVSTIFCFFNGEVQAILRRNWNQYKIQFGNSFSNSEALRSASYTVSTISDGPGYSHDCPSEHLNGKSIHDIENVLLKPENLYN
Chain of CGRP receptor (calcitonin receptor-like receptor (CRLR), receptor activity modifying protein-1 (RAMP1)) (O60894 27-148, species assumed): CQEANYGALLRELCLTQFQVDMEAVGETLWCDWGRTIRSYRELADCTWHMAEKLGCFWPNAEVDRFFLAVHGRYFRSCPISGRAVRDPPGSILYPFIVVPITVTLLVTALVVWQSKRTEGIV
Cells were cultured in F12 media supplemented with GlutaMAX™ (Gibco cat no 31765-027), FBS (10%, Gibco 16140-071), Penicillin-streptomycin (1%, Lonza DE-17-602E), G418 (400 μg/ml, Gibco 10131-027), Blasticidine (10 μg/ml, Corning cat no 15205), Hygromycin (400 μg/ml, Calbiochem cat no 400052).
Cells were seeded in a 96 well plate (Packard #6005180), 20000 cells/well in 100 μl media on the day before experimentation. On the day of experimentation media was replaced by assay medium (Dulbecco's media w/o phenol red (Gibco cat no 11880-028) supplemented with 10% FBS (10%, Gibco 16140-071), Hepes (10 mM, Gibco cat no 15630), GlutaMAX™ (2 mM, Gibco cat no 35050), 50 μl/well.
Peptides were diluted in assay media before added to cells for stimulation, 50 μl/well.
Cells were incubated 5% CO2, 37° C. for 4 hours.
Assay medium and peptides were replaced by phosphate buffered saline (PBS, Gibco cat no 14040-091), 100 μl/well and LucLite™ (PerkinElmer, cat no 6076759), 100 μl/well were added. The plate was sealed before incubation for 30 min at room temperature (21° C.). Luciferase activity (luminescens, 7 s/well) was measured (TopCount®, NXT, Packard).
Dose-response curves were fitted by use of GraphPad Prism software and pEC50 values were calculated. Data were given as mean±SEM, n=2 and each analogue was tested twice.
On to “ACDTATCVTHRLAGLLSRSGGVVKNNFVPTXVGSKAF (ACDTATCVTHRLAGLLSRSGGVVKNNFVPTK([AEEA-AEEA-γGlu-C18 diacid])VGSKAF; disulfide 2-7; ends not checked) [Acylation Position 31, human alpha CGRP, position 31 replaced by X, the acylated L-lysine; Cys2-Cys7 disulfide]”, for which the “pEC50-ratio relative to human alpha-CGRP, measured by the CGRP-induced cAMP accumulation in CGRP receptor expressing cells” value is on record as 0.44.

Turning to “ACDTATCVTHRLAGLLSRSGGVVKNNFVXTNVGSKAF (ACDTATCVTHRLAGLLSRSGGVVKNNFVK([AEEA-AEEA-γGlu-C18 diacid])TNVGSKAF; disulfide 2-7; ends not checked) [Acylation Position 29, human alpha CGRP, position 29 replaced by X, the acylated L-lysine; Cys2-Cys7 disulfide]”, the “pEC50-ratio relative to human alpha-CGRP, measured by the CGRP-induced cAMP accumulation in CGRP receptor expressing cells” value worked out at 0.41. On the same count and under the same terms, the value for “ACDTATCVTHRLAGLLSRSGGVVKNNFXPTNVGSKAF (ACDTATCVTHRLAGLLSRSGGVVKNNFK([AEEA-AEEA-γGlu-C18 diacid])PTNVGSKAF; disulfide 2-7; ends not checked) [Acylation Position 28, human alpha CGRP, position 28 replaced by X, the C18 diacid-gamma-Glu-OEG-OEG acylated L-lysine; Cys2-Cys7 disulfide]” was 0.62; that for “ACDTATCVTHRLAGLLSRSGGVVKNXFVPTNVGSKAF (ACDTATCVTHRLAGLLSRSGGVVKNK([AEEA-AEEA-γGlu-C18 diacid])FVPTNVGSKAF; disulfide 2-7; ends not checked) [Acylation Position 26, human alpha CGRP, position 26 replaced by X, the acylated L-lysine; Cys2-Cys7 disulfide]” was 0.38; that for “ACDTATCVTHRLAGLLSRSGGVVKXNFVPTNVGSKAF (ACDTATCVTHRLAGLLSRSGGVVKKNFVPTNVGSKAF; cyclised or stapled) [Acylation Position 25, human alpha CGRP, position 25 replaced by X, the acylated L-lysine; Cys2-Cys7 disulfide]” was 0.23. The same measure, in the same setting: as for “ACDTATCVTHXLAGLLSRSGGVVKNNFVPTNVGSKAF (ACDTATCVTHK([AEEA-AEEA-γGlu-C18 diacid])LAGLLSRSGGVVKNNFVPTNVGSKAF; disulfide 2-7; ends not checked) [Acylation Position 11, human alpha CGRP, position 11 replaced by X, the acylated L-lysine; Cys2-Cys7 disulfide]”, the figure is 0.28; as for “ACDXATCVTHRLAGLLSRSGGVVKNNFVPTNVGSKAF (ACDK([AEEA-AEEA-γGlu-C18 diacid])ATCVTHRLAGLLSRSGGVVKNNFVPTNVGSKAF; disulfide 2-7; ends not checked) [Acylation Position 4, human alpha CGRP, position 4 replaced by X, the acylated L-lysine; Cys2-Cys7 disulfide]”, 0.15.
